Read-outs that look alike come from different tables or passages of the source.
Tests used:
[1] = Reported (literature) binding of glutamine to GlnBP; conditions: yielded by the reported ka and kd; read-out: dissociation constant
Procedure: (§1) This figure seeks to illustrate two things. First, the fluorescence intensity of acrylodan (λmax=515 nm) decreased with increasing concentration of glutamine. Concurrently, the luminescence intensity of Ru remained constant at λmax=610 nm. Second, the standard solutions of glutamine (0.1 to 6.4 mM) were prepared in glutamine-free Dulbecco's modified Eagle media (DMEM), a commonly used media for tissue culture. The resulting solutions were then diluted 1000× with PBS and used in the assay. The submicromolar sensitivity of the protein for glutamine remained virtually unchanged from that observed with the acrylodan label alone, as shown in DATTELBAUM et al., Anal. Biochem., 291:89-95 (2001), which is incorporated by reference herein. […]
The apparent binding constants were calculated by fitting the experimental results to the binding isotherm (DATTELBAUM et al., Anal. Biochem., 291:89-95 (2001), which is incorporated by reference herein). The binding constants for the single-labeled and doubled-labeled GlnBP were calculated to be 0.23±0.01 μM and 0.28±0.03 μM, respectively. […] The binding constant of GBP for glucose was calculated to be 0.78±0.07 μM, which also agrees well with the reported value of 0.8 μM (HELLINGA et al., Trends Biotechnol., 16:183-189 (1998), which is incorporated by reference herein). […]

[2] = cited from earlier work
[3] = Glutamine measurement in lymphoblast cell culture, GlnBP sensor versus YSI; conditions: cell culture medium
Procedure: The cells used in the cell culture came from two different cell lines, GM010178 and GM14649, both lymphoblasts from […]. These cell lines were obtained commercially from Coriell Cell Repositories, and have been grown in a solution of 15% Fetal Bovine Serum in RPMI Medium 1640 with GlutaMAX™ (Gibco™, Grand Island, N.Y.). For the 100 mL cell culture, 50 mL of fresh medium was mixed with 50 mL of inoculum in a 250 mL polystyrene flask, and then incubated in a CO2 incubator (Precision Scientific, Chicago, Ill.) until the color of the medium turned from red to yellow. 1 mL of sample was taken from the culture every 2 h for analysis. […] The glutamine concentration was then measured with a YSI 2700 Chemistry Analyzer and concurrently with the glutamine biosensor by diluting a small volume of sample 1,000 times. […] One microliter of sample was taken each time and the glutamine concentration was measured with the present biosensor thereafter.
As in the determination of glucose, analysis of glutamine by the GlnBP sensor was compared to the YSI Chemistry Analyzer. […] The hydrogen peroxide that is released is detected at the platinum electrode. Since glutamate oxidase can also detect the glutamate that is already present in the media, the reading of the glutamine sensor is actually the sum of glutamine and glutamate in the media. […]

[4] = Stability and reproducibility of labeled binding proteins by binding assays; format: physicochemical; conditions: 5 months after preparation
Procedure: The stability of the binding proteins was determined by binding assays. The labeled binding proteins can be stored in phosphate buffer at 4° C. for at least 5 months. […] While not wishing to be bound by theory, factors that could have caused this change include fluorophore and protein. In any case, the recalibration of the biosensor during its use in fermentation or cell culture is unnecessary because fermentation or cell culture usually lasts from only several hours to a few days.

[5] = Fluorescence binding isotherm of labeled S179C GlnBP; conditions: fit to binding isotherm, read-out: binding constant for glutamine
Procedure: The emission spectra were recorded on a Varian Cary Eclipse fluorescence spectrophotometer (Varian Instruments, Walnut Creek, Calif.). All samples were measured in quartz cuvettes (Starna Cells, Inc., Atascadero, Calif.).
The apparent binding constants were calculated by fitting the experimental results to the binding isotherm (DATTELBAUM et al., Anal. Biochem., 291:89-95 (2001), which is incorporated by reference herein). The binding constants for the single-labeled and doubled-labeled GlnBP were calculated to be 0.23±0.01 μM and 0.28±0.03 μM, respectively. Both were in agreement with the reported value of 100-300 nM for the wild type (SOHANPAL et al., Sensors Actuators B, 11:547-552 (1993), which is incorporated by reference herein). While not wishing to be bound by theory, the reason for this agreement is believed to be that the position of the fluorophore is far from the binding site, consequently, the binding affinity is not greatly affected. The binding constant of GBP for glucose was calculated to be 0.78±0.07 μM, which also agrees well with the reported value of 0.8 μM (HELLINGA et al., Trends Biotechnol., 16:183-189 (1998), which is incorporated by reference herein).

[6] = Steady-state emission intensity ratio (I515/I610) of Ru-GlnBP-Acr versus glutamine; format: binding
Procedure: Steady-state emission spectra were recorded on a Varian Cary Eclipse spectrofluorimeter (Varin Instruments, Walnut Creek, Calif.). Time-resolved luminescence decays were measured on a frequency domain fluorimeter (ISS-Koala, Champaign, Ill.) with the following modifications. Blue LED LNG992CFBW (Panasonic, Secaucus, N.J.) driven by a current source was used as the excitation source. The modulation voltage was applied through bias T. The standard radiofrequency amplifier for the photomultiplier tubes was replaced with a ZHL-6A 1-circuits, Brooklyn, N.Y.) to enhance the low-frequency performance. The excitation light was filtered by 500-, 550-, and 650 FL07 short-wave pass filters (Andover, Salem, N.H.). The emission light was filtered by a 500 FH90 long-wave pass filter (Andover). Luminescence decay data were analyzed by nonlinear least-squares methods.
as §1, with “assay.” for “assay. The submicromolar sensitivity of the protein for glutamine remained virtually unchanged from that observed with the acrylodan label alone, as shown in DATTELBAUM et al., Anal. Biochem., 291:89-95 (2001), which is incorporated by reference herein.”

Kd [1]	Kd ([5]; listed as single-labeled GlnBP)	Kd [5]	Kd ([6]; from I515/I610 ratio, glutamine standards in DMEM diluted 1000× with PBS, 2.0 μM protein, read-out: apparent binding constant K′d for a single binding site)	Molecule	ka for the binding ([2]; reported, WEINER et al.)	kd for the dissociation ([2]; reported, WEINER et al.)	selectivity: response to glutamine versus glutamate [3]	change of calibration curve after storage [4]	Kd ([2]; literature value, read-out: reported dissociation constant for the wild type)	interference of other DMEM components with glutamine binding ([6]; DMEM diluted 1000× with PBS)
163 nM	230 ± 10 nM	200 nM		GlnBP-Acr: S179C variant of E. coli glutamine-binding protein labeled with acrylodan at cysteine 179 (protein, UniProt P0AEQ3 23-248, looked up, variant S179C, acrylodan label at C179) Glutamine-binding periplasmic …: ADKKLVVATDTAFVPFEFKQGDKYVGFDVDLWAAIAKELKLDYELKPMDFSGIIPALQTKNVDLALAGITITDERKKAIDFSDGYYKSGLLVMVKANNNDVKSVKDLDGKVVAVKSGTGSVDYAKANIKTKDLRQFPNIDNAYMELGTNRADAVLHDTPNILYFIKTAGNGQFKAVGDCLEAQQYGIAFPKGSDELRDKVNGALKTLRENGTYNEIYKKWFGTEPK	9.8e+07 M⁻¹ s⁻¹	16 s⁻¹	responsive to glutamine but not to glutamate	underwent some changes in 5 months after preparation, but was still responsive to glutamine		
				wild type: wild type glutamine-binding protein, literature dissociation constant (protein, UniProt P0AEQ3 23-248, looked up) Glutamine-binding periplasmic …: ADKKLVVATDTAFVPFEFKQGDKYVGFDVDLWAAIAKELKLDYELKPMDFSGIIPALQTKNVDLALAGITITDERKKAIDFSDGYYKSGLLVMVKANNNDVKSVKDLDGKVVAVKSGTGSVDYAKANIKTKDLRQFPNIDNAYMELGTNRADAVLHDTPNILYFIKTAGNGQFKAVGDSLEAQQYGIAFPKGSDELRDKVNGALKTLRENGTYNEIYKKWFGTEPK					100 to 300 nM	
		280 ± 30 nM	720 ± 100 nM	Ru-GlnBP-Acr: S179C GlnBP labeled at the cysteine with acrylodan and at the N-terminal with ruthenium bis-(2,2′-bipyridyl)-1,10-phenanthroline-9-isothiocyanate (protein, UniProt P0AEQ3 23-248, looked up, variant S179C, acrylodan; N-terminal ruthenium complex label, S179C GlnBP labeled at the cysteine with acrylodan and at the N-terminal with ruthenium bis-(2,2′-bipyridyl)-1,10-phenanthroline-9-isothiocyanate) Glutamine-binding periplasmic …: ADKKLVVATDTAFVPFEFKQGDKYVGFDVDLWAAIAKELKLDYELKPMDFSGIIPALQTKNVDLALAGITITDERKKAIDFSDGYYKSGLLVMVKANNNDVKSVKDLDGKVVAVKSGTGSVDYAKANIKTKDLRQFPNIDNAYMELGTNRADAVLHDTPNILYFIKTAGNGQFKAVGDCLEAQQYGIAFPKGSDELRDKVNGALKTLRENGTYNEIYKKWFGTEPK						did not interfere with the binding of glutamine
